A value given as a limit tells only on which side of the number the result lay.

In assay [1] the target is T1, CD47 on the surface of CD47+ cells (human, UniProt Q08722 19-323).
T1 construct: whole, on cells; also called CD47+ cell lines; CD47 on Raji cells, HCT-15 cells, human red blood cells (RBCs), human platelets
In words: flow cytometry on CD47+ cell lines; EC50 as grade, legend the 7th table, row 26.
Protocol: Antibody binding to CD47+ cell lines was quantified by flow cytometry. Harvested cells were centrifuged at 2000 rpm for 5 min, resuspended in 10-15 mL ice-cold culture medium, and then counted. Cells were resuspended in blocking buffer (PBS plus 2% FBS) at a concentration of 3×10⁶ cells/mL. 100 μL of the cell suspension was dispensed into each well of a 96-well plate. Purified antibodies were diluted to the desired concentrations with blocking buffer and 100 μL of diluted antibodies were added to the well and incubated for 1 hour at 4° C. The cells were then washed 3 times with PBS plus 2% FBS. […] The cells were then washed 3 times with 200 μL PBS by centrifuging at 2000 rpm for 5 min. After the last wash, the cells were resuspended in 300 μL cold PBS and analyzed on a FACSVerse™ (BD Biosciences) flow cytometer.

For assay [2], the target named is T1, CD47 on the surface of CD47+ cells. As to the kind of experiment: flow cytometry, competition with SIRPA-mIgG2a on CD47+ tumor cells; IC50 as grade, legend the 8th table, row 26.
Protocol: Tumor cells were harvested, centrifuged, and then resuspended in FACS buffer (PBS plus 2% FBS) at a concentration of 2×10⁶ cells/mL. 100 μL of the cell suspension was dispensed into each well of a 96-well plate. The plate was centrifuged for 5 min and 300×g, and the supernatants were discarded. […] After washing twice with FACS buffer, the plates were resuspended with 300 μL FACS buffer and analyzed by flow cytometry.
Assay [3] deals with T2, extracellular domain (ECD) of human CD47 (19aa-139aa) with C-terminal 6xHis tag (human, UniProt Q08722 19-139).
T2 construct: also called recombinant CD47; recombinant human CD47
In words: ELISA, coated recombinant CD47; EC50 as grade, legend the 6th table, row 26.
Protocol: A 96-well plate was coated overnight at 4° C. with 1 μg/ml recombinant CD47. After washing 3 times, the plate was blocked with 300 μL 1% BSA in PBST at 37° C. for 1 hour. Serially diluted antibodies were added and incubated at 37° C. for 1 hour. The plate was then washed 4 times with PBST and incubated with 1:5000 diluted 2nd antibody (Sigma, Cat #A0293) at 37° C. for 1 hour.

Assay [4] addresses T3, extracellular domain (ECD) of cyno CD47 (4aa-126aa) with C-terminal 6xHis tag (cynomolgus monkey, UniProt Q08722 19-140 (human entry), limits assumed).
T3 construct: also called cynomolgus monkey CD47
T3 chain: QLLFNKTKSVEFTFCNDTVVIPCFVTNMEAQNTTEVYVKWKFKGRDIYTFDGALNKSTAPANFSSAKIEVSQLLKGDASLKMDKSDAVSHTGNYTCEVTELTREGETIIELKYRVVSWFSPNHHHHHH
In words: ELISA, coated recombinant CD47, FIG. 4A-4B.
Protocol: (§1) A 96-well plate was coated overnight at 4° C. with 1 μg/mL recombinant CD47. After washing 3 times, the plate was blocked with 300 μL 100 BSA in PBST at 37° C. for 1 hour. Serially diluted antibodies were added and incubated at 37° C. for 1 hour. The plate was then washed 4 times with PBST and incubated with 1:5000 diluted peroxidase labeled goat anti-human IgG (Fab specific) secondary antibody (Sigma, Cat #A0293) for 1 hour at 37° C. The plate was washed again 4 times with PBST, incubated with 3,3′,5,5′-tetramethylbenzidine (TMB) substrate for 15 min at room temperature, terminated with 1N HCl, and then read at 450 nm.

The target of assay [5] is T2, extracellular domain (ECD) of human …. As to the kind of experiment: ELISA, coated recombinant CD47, FIG. 4A-4B.
Protocol: as §1
Assay [6] has the same target. As to the kind of experiment: ELISA on recombinant human CD47; legend: NB: not bound.

B1: R.13A2 (antibody, human IgG1, kappa, V domains shown)
VH: QSLEESGGDLVKPGASLTVTCTASGFSFSSYYYVCWVRQAPGKGLEWIACIYAGSSGDTYYASWAKGRFTISKTSSTTVTLQMTSLTAADTATYFCARGYTGYSYQFNFWGPGTLVTVSS
VL: DVVMTQTPASVEAAVGGTVTIKCQASQSISNELSWYQQKPGQPPKLLIYRASTLESGVPSRFKGSGSGTEFTLTISDLESADAATYYCQCTYITYGNAFGGGTEVVVKR
notes: Chimeric: rabbit variable domains, human IgG1 and human kappa constant regions
As to B1, the figures for the EC50 in assay [1] and in assay [3] were 0.5 to 5 nM and above 0.5 nM, respectively. The IC50 in assay [2] lay in the range of 0.1 to 1 nM.

B2: hu.1D15E11-V1 (antibody, human IgG1, kappa, V domains shown)
VH: EVQLVQSGAEVKKPGASVKVSCKASGYTFTSYVMHWVRQAPGQRLEWMGYIDPYNEGTKYNEKFKGRVTITRDTSASTAYMELSSLRSEDTAVYYCSRGGMARRSFDYWGQGTLVTVSS
VL: DIQMTQSPSSLSASVGDRVTITCLASQTIGTWLTWYQQKPGKAPKLLIYAATTLAEGVPSRFSGSGSGTDFTLTISSLQPEDFATYYCQQLYSTPWTFGGGTKVEIKR
notes: Humanised variant of 1D15E11; also called hu.1D15E11-Vi; hu.1D15E11 variants
Regarding B2, the binding result in assay [4] and in assay [5] was “binds” in each case.

B3: hu.1D15E11-V4 (antibody, human IgG1, kappa, V domains shown)
VH: EVQLVQSGAEVKKPGASVKVSCKASGYTFTSYVMHWVRQAPGQRLEWMGYIDPYNEGTKYNEKFKGRVTITRDTSASTAYMELSSLRSEDTAVYYCSRGGVARRSFDYWGQGTLVTVSS
VL: DIQMTQSPSSLSASVGDRVTITCLASQTIGTWLTWYQQKPGKAPKLLIYAATTLAEGVPSRFSGSGSGTDFTLTISSLQPEDFATYYCQQLYSTPWTFGGGTKVEIKR
notes: Humanised variant of 1D15E11; also called hu.1D15E11 variants
Turning to B3, the binding result in assay [4] and in assay [5] was “binds” throughout.

B4: hu.1D15E11-V3 (antibody, human IgG1, kappa, V domains shown)
VH: EVQLVQSGAEVKKPGASVKVSCKASGYTFTSYVMHWVRQAPGQRLEWMGYIDPYNEGTKYNEKFKGRVTITRDTSASTAYMELSSLRSEDTAVYYCSRGGIARRSFDYWGQGTLVTVSS
VL: DIQMTQSPSSLSASVGDRVTITCLASQTIGTWLTWYQQKPGKAPKLLIYAATTLAEGVPSRFSGSGSGTDFTLTISSLQPEDFATYYCQQLYSTPWTFGGGTKVEIKR
notes: as for B3
In the case of B4, the binding result in assay [4] and in assay [5] was “binds” each time.

B5: hu.1D15E11-V2 (antibody, human IgG1, kappa, V domains shown)
VH: EVQLVQSGAEVKKPGASVKVSCKASGYTFTSYVMHWVRQAPGQRLEWMGYIDPYNEGTKYNEKFKGRVTITSDTSASTAYMELSSLRSEDTAVYYCSRGGMARRSFDYWGQGTLVTVSS
VL: DIQMTQSPSSLSASVGDRVTITCLASQTIGTWLTWYQQKPGKAPKLLIYAATTLAEGVPSRFSGSGSGTDFTLTISSLQPEDFATYYCQQLYSTPWTFGGGTKVEIKR
notes: as for B3
As for B5, the binding result in assay [4] and in assay [5] was “binds” in each case.

B6: M.95D4A11 (antibody, human IgG1, kappa, V domains shown)
VH: QVQLQQPGAELVRPGASVKLSCKASGYTFTSYWMNWVKQRPEQGLEWIGSIDPYDSETHYNQKFKDKAILTVDKSSSTAYMQLSSLTSEDSAVYYCARGRGYAMDYWGQGTSVTVSS
VL: DIQMTQSPASLSASVGETVTITCRASGNIHNYLAWYQQKQGKSPQLLVYNAKTLADGVPSRFSGSGSGTQYSLKINSLQPEDFGSYYCQHFWSTPPTFGGGTKLEIKR
notes: Chimeric: mouse variable domains, human IgG1 and human kappa constant regions
Take B6: the concentration giving a half-maximal response (EC50) lay within 0.1 to 0.5 nM in assay [1] and 0.01 to 0.1 nM in assay [3]. For the same molecule, in assay [2], the IC50 fell in the range of 0.1 to 1 nM.

B7: hu.18B9.3i HC_D95A (antibody, name in Kabat numbering, V domains shown)
VH: EVQLVESGGGLVQPGGSLRLSCAASGFSFNSGYMSWVRQAPGKGLEWIASIYAGSSGKTYYADWAKGRFTISKTSSKTTVYLQMNSLRAEDTAVYYCARASGGTYYTDYLYLWGQGTLVTVSS
VL: DIQMTQSPSSLSASVGDRVTITCRASEGISSYLSWYQQKPGKAPKLLIYKASTLTSGVPSRFSGSGSGTDFTLTISSLQPEDFATYYCQSTYGSSGSSGYGAAFGGGTKVEIK
notes: Alanine scan variant of hu.18B9.3i; Kabat numbering
For the molecule B7, in assay [6], the binding result was “no binding”.

B8: hu.18B9.3i HC_G98A (antibody, name in Kabat numbering, V domains shown)
VH: EVQLVESGGGLVQPGGSLRLSCAASGFSFNSGYMSWVRQAPGKGLEWIASIYAGSSGKTYYADWAKGRFTISKTSSKTTVYLQMNSLRAEDTAVYYCARDSGATYYTDYLYLWGQGTLVTVSS
VL: DIQMTQSPSSLSASVGDRVTITCRASEGISSYLSWYQQKPGKAPKLLIYKASTLTSGVPSRFSGSGSGTDFTLTISSLQPEDFATYYCQSTYGSSGSSGYGAAFGGGTKVEIK
notes: as for B7
As for B8, the binding result in assay [6] is “no binding”.

B9: hu.18B9.3i HC_G97A (antibody, name in Kabat numbering, V domains shown)
VH: EVQLVESGGGLVQPGGSLRLSCAASGFSFNSGYMSWVRQAPGKGLEWIASIYAGSSGKTYYADWAKGRFTISKTSSKTTVYLQMNSLRAEDTAVYYCARDSAGTYYTDYLYLWGQGTLVTVSS
VL: DIQMTQSPSSLSASVGDRVTITCRASEGISSYLSWYQQKPGKAPKLLIYKASTLTSGVPSRFSGSGSGTDFTLTISSLQPEDFATYYCQSTYGSSGSSGYGAAFGGGTKVEIK
notes: as for B7
Regarding B9, the binding result in assay [6] is “no binding”.

B10: hu.18B9.3i HC_Y100d_A (antibody, V domains shown)
VH: EVQLVESGGGLVQPGGSLRLSCAASGFSFNSGYMSWVRQAPGKGLEWIASIYAGSSGKTYYADWAKGRFTISKTSSKTTVYLQMNSLRAEDTAVYYCARDSGGTYYTDALYLWGQGTLVTVSS
VL: DIQMTQSPSSLSASVGDRVTITCRASEGISSYLSWYQQKPGKAPKLLIYKASTLTSGVPSRFSGSGSGTDFTLTISSLQPEDFATYYCQSTYGSSGSSGYGAAFGGGTKVEIK
notes: as for B7
Turning to B10, the binding result in assay [6] is on record as “no binding”.

B11: hu.18B9.3i HC_Y101A (antibody, name in Kabat numbering, V domains shown)
VH: EVQLVESGGGLVQPGGSLRLSCAASGFSFNSGYMSWVRQAPGKGLEWIASIYAGSSGKTYYADWAKGRFTISKTSSKTTVYLQMNSLRAEDTAVYYCARDSGGTYYTDYLALWGQGTLVTVSS
VL: DIQMTQSPSSLSASVGDRVTITCRASEGISSYLSWYQQKPGKAPKLLIYKASTLTSGVPSRFSGSGSGTDFTLTISSLQPEDFATYYCQSTYGSSGSSGYGAAFGGGTKVEIK
notes: as for B7
In the case of B11, in assay [6], the binding result was “no binding”.

B12: hu.18B9.3i HC_D100c_A (antibody, V domains shown)
VH: EVQLVESGGGLVQPGGSLRLSCAASGFSFNSGYMSWVRQAPGKGLEWIASIYAGSSGKTYYADWAKGRFTISKTSSKTTVYLQMNSLRAEDTAVYYCARDSGGTYYTAYLYLWGQGTLVTVSS
VL: DIQMTQSPSSLSASVGDRVTITCRASEGISSYLSWYQQKPGKAPKLLIYKASTLTSGVPSRFSGSGSGTDFTLTISSLQPEDFATYYCQSTYGSSGSSGYGAAFGGGTKVEIK
notes: as for B7
B12: in assay [6], the binding result is “no binding”.

B13: R.9B11 (antibody, human IgG1, kappa, V domains shown)
VH: QEQLEESGGDLVKPEGSLTLTCTASGFSFSSYWMAWVRQAPGKGLEWIACIYIGSGSGTTYYASWAKGRFTISKTSSTTVTLQMTSLTAADTAIYFCARWAGSDGHFTLWGPGTLVTVSL
VL: ALVMTQTPASVEAAVGGTVTINCQASQSINNLLAWYQQKPGQRPKLLIYDASDLASGVSSRFKGSGSGTEYTLTISGVQSADAATYYCQGYFYGSSVDLVFGGGTEVVVKR
notes: as for B1
Consider B13, for which the values for the EC50 in assay [1] and in assay [3] were 0.5 to 5 nM and 0.01 to 0.1 nM, respectively. In assay [2], this molecule had an IC50 of 1 to 5 nM.

B14: R.14G4 (antibody, human IgG1, kappa, V domains shown)
VH: QEQLKESGGGLVTPGGTLTLTCTASGFTITSYHMCWVRQAPGKGLEWIGCIYPNNGFTWYASWAKGRFTISKTSSTTVDLKMTSPTTEEMATYFCARGSGNSYNQLDLWGQGTLVTVSS
VL: AIVMTQTPASVSATLGGSVTINCQSSESVYRDNCLGWFQQKPGQPPKLLIYKASTLASGVPSRFKGSGSGTQFTLTISDVVSDDAATYYCAGYKSTITDGTAFGGGTEVVVKR
notes: as for B1
As to B14, the EC50 in assay [1] is above 5 nM; in assay [3], above 0.5 nM. In assay [2], the IC50 was in the range of 1 to 5 nM.

B15: R.1H3 (antibody, human IgG1, kappa, V domains shown)
VH: QSLEESGGDLVKPGASLTLTCTASGFSFSSGYYMCWVRQAPGKGLEWIACIYMRSGDTYLASWAKGQFTISKTSSTTVTLQMTSLTAADTATYFCGRGGTSYALNLWGQGTLVTVSS
VL: DVVMTQTPASVSEPVGGTVTINCQASQSISNECSWYQQKPGQPPKLLIYRASTLESGVPSRFSGSGSGTEFTLTISDLESADAATYYCQSTYYGTTGNTFGGGTEVVVKR
notes: as for B1
With B15, the figures for the EC50 in assay [1] and in assay [3] were 0.1 to 0.5 nM and above 0.5 nM, respectively. The IC50 in assay [2] lay within 0.1 to 1 nM.

B16: R.15G10 (antibody, human IgG1, kappa, V domains shown)
VH: QSLEESGGRLVTPGTPLTLTCTASGFTISSYHMNWVRQAPGEGLEWIGIIYVGSGNADYASWAKGRFTISKASTTVDLKITSPTTEDTATYFCARGPTNTYPTYFNLWGPGTLVTVSS
VL: AFELTQTPSSVEAAVGGTVTIKCQASRSITSYLAWYQHKPGQPPTLLIYAASNVASGVSSRFKGSRSGTEYTLTISDLESADAATYYCQSYYAISTNTFGGGTEVVVKR
notes: as for B1
For the molecule B16, the concentration for a half-maximal effect (EC50) in assay [1] is 0.5 to 5 nM; in assay [3], 0.01 to 0.1 nM. In addition, the IC50 in assay [2] is 0.1 to 1 nM.

B17: M.69H1H9 (antibody, human IgG1, kappa, V domains shown)
VH: EVQLQQSGPELVKPGASVKMSCKTSGYTFTEYTIHWVKQSHEKSLEWIGSINPNNGLFRYNQKFKGKATLTVDKSSSTAYMELRSLTSEDSAVYYCARDYGFGYSDYWGQGTTLTVSS
VL: DIQMIQSPSSMFASLGDRVSLSCRASQGIRGNLDWYQQKPGGTIKLLIYSTSNLNSGVPSRFSGSGSGSDYSLTISSLESEDFADYYCLQRNAFPWTFGGGTKLEIKR
notes: as for B6
For B17, the results for the concentration for a half-maximal effect (EC50) in assay [1] and in assay [3] were 0.1 to 0.5 nM and 0.01 to 0.1 nM, respectively. In addition, the IC50 in assay [2] is 0.1 to 1 nM.

The record behind these values is patent US20240174750A1 (VIRTUOSO BINCO, published 2024).
